Earlier results on 2 substances are cited in publication PMC4258470.

One may read the Kd as the equilibrium constant for the complex coming apart.

Data set [1] has as its target HPV16 E7 CR1-CR2 (Human papillomavirus type 16) (UniProt P03129).
Data set [2] deals with p53 N-terminal transactivation domain (Homo sapiens) (UniProt P04637).
Sequence of p53 N-terminal transactivation domain (Homo sapiens) (P04637 1-61): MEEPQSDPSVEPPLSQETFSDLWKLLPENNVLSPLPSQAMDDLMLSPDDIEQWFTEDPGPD

Sequence of CBP TAZ2 (P45481 1766-1847): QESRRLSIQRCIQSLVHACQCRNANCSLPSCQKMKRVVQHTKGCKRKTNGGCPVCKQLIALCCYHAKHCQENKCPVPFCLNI
Sequence of pRb (P06400 2-928): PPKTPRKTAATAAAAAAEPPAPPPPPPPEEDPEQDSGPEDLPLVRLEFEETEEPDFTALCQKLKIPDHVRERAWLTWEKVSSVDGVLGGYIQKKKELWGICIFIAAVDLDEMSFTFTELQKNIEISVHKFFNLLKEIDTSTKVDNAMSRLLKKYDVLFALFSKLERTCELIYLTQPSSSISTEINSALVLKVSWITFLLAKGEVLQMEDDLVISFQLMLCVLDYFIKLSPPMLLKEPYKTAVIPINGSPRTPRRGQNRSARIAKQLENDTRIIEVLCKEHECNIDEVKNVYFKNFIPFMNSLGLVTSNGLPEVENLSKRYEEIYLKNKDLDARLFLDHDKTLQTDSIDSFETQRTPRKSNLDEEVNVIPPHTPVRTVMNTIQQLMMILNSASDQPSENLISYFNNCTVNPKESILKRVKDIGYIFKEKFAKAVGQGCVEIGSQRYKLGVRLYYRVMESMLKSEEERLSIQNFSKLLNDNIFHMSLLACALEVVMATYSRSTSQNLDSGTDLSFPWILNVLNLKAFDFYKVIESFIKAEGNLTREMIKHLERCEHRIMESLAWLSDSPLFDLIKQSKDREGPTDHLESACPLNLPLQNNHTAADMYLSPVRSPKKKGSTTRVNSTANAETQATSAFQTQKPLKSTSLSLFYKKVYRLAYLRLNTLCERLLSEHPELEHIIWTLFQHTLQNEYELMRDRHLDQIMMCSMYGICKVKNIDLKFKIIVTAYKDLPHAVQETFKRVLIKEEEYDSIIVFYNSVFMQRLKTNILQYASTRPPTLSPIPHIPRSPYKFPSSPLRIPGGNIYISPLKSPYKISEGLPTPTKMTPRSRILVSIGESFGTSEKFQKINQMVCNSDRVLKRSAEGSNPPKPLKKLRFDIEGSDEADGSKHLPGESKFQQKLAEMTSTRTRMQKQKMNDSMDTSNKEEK
Sequence of HPV16 E7 CR1-CR2 (Human papillomavirus type 16) (P03129 1-40): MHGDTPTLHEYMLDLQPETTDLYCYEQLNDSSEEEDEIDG

For the substance pRb (from UniProt P06400), the Kd in data set [1] is 2 nM.
CBP TAZ2 (from UniProt P45481): the Kd in data set [2] is 20 nM.
